One test concerns the target HLA-B*40:01. As to the kind of experiment: IEDB peptide-MHC binding, purified MHC/competitive/radioactivity; filed as Kd, often an IC50 or EC50 that approximates it; ≥ and ≤ were set here for values at or beyond the usual limits of such assays. The following applies: source organism: Dengue virus 2 Jamaica/1409/1983.
A further test deals with HLA-B*44:03. The description is as above. The following applies: source organism: Dengue virus 2 Jamaica/1409/1983.
The target of the next test is HLA-A*30:01. The test is described as above.
A further test has as its target HLA-B*44:02. The description is as above. The conditions noted are these: source organism: Dengue virus 2 Jamaica/1409/1983.
In another test the target is HLA-A*30:02. The test is described as above.
For a further test, the target named is HLA-A*01:01. The test is described as above.
The next test has as its target HLA-A*29:02. The description is as above.
A further test concerns the target HLA-A*32:01. The description is as above.
Test [1] addresses HLA-A*26:01. The description is as above.
Test [2] concerns the target HLA-A*26:01. As to the kind of experiment: IEDB peptide-MHC binding, purified MHC/competitive/fluorescence; filed as Kd, often an IC50 or EC50 that approximates it; ≥ and ≤ were set here for values at or beyond the usual limits of such assays. The conditions noted are these: source organism: Bacillus anthracis str. A0488.
In test [3] the target is HLA-B*51:01. The test is described as above.
A further test has as its target HLA-A*68:02. As to the kind of experiment: IEDB peptide-MHC binding, purified MHC/competitive/radioactivity; filed as Kd, often an IC50 or EC50 that approximates it; ≥ and ≤ were set here for values at or beyond the usual limits of such assays.
The target of a further test is HLA-A*02:06. Described as above.
For a further test, the target named is HLA-A*02:02. The test is described as above. The conditions noted are these: source organism: Trypanosoma cruzi.
A further test deals with HLA-A*02:03. The test is described as above. The following applies: source organism: Trypanosoma cruzi.
For test [4], the target named is HLA-B*51:01. Described as above. The following applies: source organism: Dengue virus 4 Dominica/814669/1981.
The target in a further test is HLA-A*02:01. Described as above.
In the next test the target is HLA-B*15:01. As to the kind of experiment: IEDB peptide-MHC binding, purified MHC/competitive/fluorescence; filed as Kd, often an IC50 or EC50 that approximates it; ≥ and ≤ were set here for values at or beyond the usual limits of such assays. The conditions noted are these: source organism: Bacillus anthracis str. A2012.
The target in another test is HLA-A*03:01. As to the kind of experiment: IEDB peptide-MHC binding, purified MHC/competitive/radioactivity; filed as Kd, often an IC50 or EC50 that approximates it; ≥ and ≤ were set here for values at or beyond the usual limits of such assays. The conditions noted are these: source organism: Dengue virus 2 Jamaica/1409/1983.
[5] abbreviates: source organism: Dengue virus 2 Jamaica/1409/1983.
Setting [6] is: source organism: Mammarenavirus guanaritoense.
The mark [7] stands for this setting: source organism: Mammarenavirus brazilense.
The mark [8] stands for this setting: source organism: Trypanosoma cruzi.
The mark [9] stands for this setting: source organism: Dengue virus 4 Dominica/814669/1981.
[10] abbreviates: source organism: Vaccinia virus WR.
The mark [11] stands for this setting: source organism: Mammarenavirus lassaense.

Experimental findings from the Immune Epitope Database (IEDB) are described below.

One may read the Kd as the equilibrium constant for the complex coming apart. For the sequence AEISGSSPIL, the Kd turned out to be 0.00104 µM with HLA-B*40:01, 0.00675 µM with HLA-B*44:03, 16.1 µM with HLA-A*30:01 (setting [5]) and 0.00616 µM with HLA-B*44:02.

Regarding ATFKIQPFL, the Kd in the test with HLA-A*30:01 (source organism: Dengue virus 3 Martinique/1243/1999) turned out to be 0.361 µM.

On to AVFQPSTGNY, for which the Kd with HLA-A*30:02 (setting [6]) was 0.0215 µM; in the test with HLA-A*01:01 (setting [6]), not below 27.6 µM; in the test with HLA-A*29:02 (setting [6]), 0.819 µM; with HLA-A*32:01 (setting [6]), not below 69.9 µM; in the test with HLA-A*30:01 (setting [6]), 12.4 µM; with HLA-A*26:01 [1] (setting [6]), 0.776 µM.

In the case of CTREEFTRK, the Kd in the test with HLA-A*30:01 (setting [5]) came to 0.0644 µM.

For EGIYKLSSM, the Kd with HLA-A*26:01 [2] worked out at 0.0431 µM.

With EMFKTKGRY, the Kd is 0.131 µM in the test with HLA-A*30:02 (setting [7]); not below 32 µM in the test with HLA-A*01:01 (setting [7]); 11.5 µM with HLA-A*29:02 (setting [7]); not below 77.8 µM with HLA-A*32:01 (setting [7]); 8.95 µM with HLA-A*30:01 (setting [7]); 0.65 µM with HLA-A*26:01 [1] (setting [7]).

EPYPPKGPV: in the test with HLA-B*51:01 [3] (source organism: Vibrio vulnificus YJ016), the Kd is 0.828 µM.

Regarding EVKKQRAGV, the Kd in the test with HLA-A*68:02 (setting [5]) was found to be 0.0616 µM; with HLA-A*26:01 [1] (setting [5]) it was 9.12 µM.

Regarding FANNKFTLV, the Kd in the test with HLA-A*68:02 (setting [8]) amounted to 0.075 µM; in the test with HLA-A*02:06 (setting [8]), 0.00305 µM; with HLA-A*02:02, 0.0641 µM; in the test with HLA-A*02:03 it was 0.00136 µM.

Take FLEQQNKIL: in the test with HLA-A*68:02 (source organism: Homo sapiens), the Kd is not below 136 µM.

Regarding FPSVRYQNI, in the test with HLA-B*51:01 [3] (source organism: Yersinia pestis KIM10+), the Kd worked out at 1.02 µM.

On to FTVQADMGCV, for which the Kd is 0.00355 µM in the test with HLA-A*68:02 (setting [9]), not below 59.2 µM in the test with HLA-B*51:01 [4] and 0.11 µM in the test with HLA-A*02:06 (setting [9]).

As to FVDYNFSLV, the Kd in the test with HLA-A*68:02 (setting [8]) worked out at 0.0755 µM; in the test with HLA-A*02:06 (setting [8]) it was 0.000655 µM; with HLA-A*02:02, 0.000503 µM; with HLA-A*02:03 it was 0.00424 µM.

For GITRPTTLV, the Kd with HLA-A*68:02 (setting [8]) was 11.9 µM; in the test with HLA-A*02:06 (setting [8]) it was 12.2 µM; with HLA-A*02:02, 13.7 µM; in the test with HLA-A*02:01 (setting [8]), not below 92.6 µM; in the test with HLA-A*02:03 it was 1.15 µM.

GKTRRYLPAI: in the test with HLA-A*30:01 (source organism: Dengue virus 1 Brazil/97-11/1997), the equilibrium dissociation constant (Kd) was determined as 0.67 µM.

For HVGRPTTVV, the Kd with HLA-A*68:02 (setting [8]) is 0.0211 µM; with HLA-A*02:06 (setting [8]) it was 0.639 µM; with HLA-A*02:02, 1.06 µM; in the test with HLA-A*02:01 (setting [8]) it was 9.86 µM; with HLA-A*02:03, 0.452 µM.

Sequence IAIEFKSRF had a Kd with HLA-B*15:01 of 0.279 µM.

As to IALSVLAVL, in the test with HLA-A*02:01 (source organism: Lassa virus Josiah), the Kd was 1.92 µM.

For the sequence IISLWDQSL, in the test with HLA-A*02:01 (source organism: HIV-1 M:B_MN), the Kd is 0.279 µM.

IPVEPAFQV yielded a Kd with HLA-B*51:01 [3] (source organism: Vibrio antiquarius) of 0.254 µM.

For the sequence ISRFANLIK, in the test with HLA-A*30:01 (setting [10]), the Kd was determined as 0.0134 µM.

As to KSRLNALGK, the Kd in the test with HLA-A*03:01 worked out at 0.0113 µM; with HLA-A*30:01 (setting [5]) it was 0.00344 µM.

For the sequence KTGECSKCY, the Kd with HLA-A*30:02 (setting [11]) was 0.834 µM; with HLA-A*01:01 (setting [11]) it was 12.8 µM; in the test with HLA-A*29:02 (setting [11]), 10.2 µM; with HLA-A*32:01 (setting [11]), 6.79 µM; with HLA-A*30:01 (setting [11]), 18.6 µM; with HLA-A*26:01 [1] (setting [11]) it was not below 77.9 µM.

With KVFVPAPFG, the Kd in the test with HLA-A*30:01 (setting [10]) amounted to 0.00664 µM.
